Results published in IntAct's records for PubMed 19208808.

B1: ATP-dependent RNA helicase DDX19B (Homo sapiens), Q9UMR2-1 (parent)
chain: MATDSWALAVDEQEAAAESLSNLHLKEEKIKPDTNGAVVKTNANAEKTDEEEKEDRAAQSLLNKLIRSNLVDNTNQVEVLQRDPNSPLYSVKSFEELRLKPQLLQGVYAMGFNRPSKIQENALPLMLAEPPQNLIAQSQSGTGKTAAFVLAMLSQVEPANKYPQCLCLSPTYELALQTGKVIEQMGKFYPELKLAYAVRGNKLERGQKISEQIVIGTPGTVLDWCSKLKFIDPKKIKVFVLDEADVMIATQGHQDQSIRIQRMLPRNCQMLLFSATFEDSVWKFAQKVVPDPNVIKLKREEETLDTIKQYYVLCSSRDEKFQALCNLYGAITIAQAMIFCHTRKTASWLAAELSKEGHQVALLSGEMMVEQRAAVIERFREGKEKVLVTTNVCARGIDVEQVSVVINFDLPVDKDGNPDNETYLHRIGRTGRFGKRGLAVNMVDSKHSMNILNRIQEHFNKKIERLDTDDLDEIEKIAN

Variants of: B1
Details: with NUP214, P35658-1
Chain of NUP214, P35658-1 (P35658 whole entry): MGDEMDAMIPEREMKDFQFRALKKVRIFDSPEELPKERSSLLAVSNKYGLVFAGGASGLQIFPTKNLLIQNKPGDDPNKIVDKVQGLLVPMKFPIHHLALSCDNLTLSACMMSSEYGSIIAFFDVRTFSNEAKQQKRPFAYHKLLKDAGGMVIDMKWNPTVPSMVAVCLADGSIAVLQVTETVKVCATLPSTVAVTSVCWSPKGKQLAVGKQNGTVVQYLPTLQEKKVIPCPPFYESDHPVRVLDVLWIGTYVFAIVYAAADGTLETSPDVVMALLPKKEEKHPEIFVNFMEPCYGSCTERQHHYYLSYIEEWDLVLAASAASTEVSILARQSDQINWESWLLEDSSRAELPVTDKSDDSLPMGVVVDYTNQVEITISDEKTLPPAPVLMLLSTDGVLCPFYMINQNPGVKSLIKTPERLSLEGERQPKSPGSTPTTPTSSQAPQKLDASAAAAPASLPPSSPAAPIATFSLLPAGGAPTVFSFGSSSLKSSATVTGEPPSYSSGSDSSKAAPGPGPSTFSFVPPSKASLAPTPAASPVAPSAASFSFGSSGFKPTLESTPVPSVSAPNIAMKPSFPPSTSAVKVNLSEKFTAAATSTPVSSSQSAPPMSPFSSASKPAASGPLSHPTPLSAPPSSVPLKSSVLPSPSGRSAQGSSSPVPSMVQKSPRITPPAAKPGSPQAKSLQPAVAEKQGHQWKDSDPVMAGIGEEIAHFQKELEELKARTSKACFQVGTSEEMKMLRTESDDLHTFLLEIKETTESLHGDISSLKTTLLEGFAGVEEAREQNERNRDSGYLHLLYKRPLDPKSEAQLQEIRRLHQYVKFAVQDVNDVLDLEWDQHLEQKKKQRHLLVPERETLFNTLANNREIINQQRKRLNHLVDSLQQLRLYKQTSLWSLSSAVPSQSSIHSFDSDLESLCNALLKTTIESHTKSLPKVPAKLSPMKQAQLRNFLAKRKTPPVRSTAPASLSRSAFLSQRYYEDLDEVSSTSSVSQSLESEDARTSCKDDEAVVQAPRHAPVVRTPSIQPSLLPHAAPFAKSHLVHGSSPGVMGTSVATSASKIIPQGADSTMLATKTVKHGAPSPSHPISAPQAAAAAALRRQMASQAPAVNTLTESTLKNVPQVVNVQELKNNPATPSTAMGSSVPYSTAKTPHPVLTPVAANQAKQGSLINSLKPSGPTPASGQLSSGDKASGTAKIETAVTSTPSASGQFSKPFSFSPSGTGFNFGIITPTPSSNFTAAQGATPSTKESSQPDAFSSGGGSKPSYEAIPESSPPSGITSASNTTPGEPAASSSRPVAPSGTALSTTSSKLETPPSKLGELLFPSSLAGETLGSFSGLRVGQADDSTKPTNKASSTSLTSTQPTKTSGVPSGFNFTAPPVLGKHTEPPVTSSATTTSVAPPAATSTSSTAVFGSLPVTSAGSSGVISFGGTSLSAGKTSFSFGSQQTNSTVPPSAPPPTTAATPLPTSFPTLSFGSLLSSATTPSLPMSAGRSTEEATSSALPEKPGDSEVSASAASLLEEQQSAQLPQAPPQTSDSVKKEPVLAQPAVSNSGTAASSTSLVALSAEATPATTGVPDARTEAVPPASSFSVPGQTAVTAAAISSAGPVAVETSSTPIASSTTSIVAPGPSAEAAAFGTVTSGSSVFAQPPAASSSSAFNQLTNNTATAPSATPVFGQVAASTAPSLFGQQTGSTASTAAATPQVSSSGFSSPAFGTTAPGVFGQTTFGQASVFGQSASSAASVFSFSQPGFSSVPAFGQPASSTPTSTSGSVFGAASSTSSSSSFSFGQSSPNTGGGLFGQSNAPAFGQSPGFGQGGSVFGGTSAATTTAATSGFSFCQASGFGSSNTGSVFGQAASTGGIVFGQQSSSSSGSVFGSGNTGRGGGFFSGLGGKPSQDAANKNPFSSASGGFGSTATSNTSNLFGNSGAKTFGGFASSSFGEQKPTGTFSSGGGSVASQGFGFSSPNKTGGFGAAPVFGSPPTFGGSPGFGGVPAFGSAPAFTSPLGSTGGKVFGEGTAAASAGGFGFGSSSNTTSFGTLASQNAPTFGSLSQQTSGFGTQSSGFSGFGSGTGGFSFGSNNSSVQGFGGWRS

**Q.** With R259E as the variant, how does the “effect of a mutation on the interaction” value read?
**A.** disrupting interaction strength

**Q.** R259Q was tested. Which “effect of a mutation on the interaction” value did it give?
**A.** decreasing interaction

**Q.** R259A was tested. Which “effect of a mutation on the interaction” value did it give?
**A.** disrupting interaction strength
